Assay [1] addresses microtubules.
Assay [2] deals with microtubules. Briefly: co-sedimentation; microtubule pelleting assay: 0.7 µM motor with 2 µM microtubules and 0.1 mM Mg·ADP in HEM100 (10 mM HEPES pH 7.2, 1 mM EGTA, 1 mM MgCl2, 100 mM NaCl); centrifugation, SDS-PAGE; corrected for motor that pelleted without microtubules.

B1: wild-type Ncd dimeric motor protein (MGSM-H293-K700) (domain or fragment)
chain: MGSMHAALSTEVVHLRQRTEELLRCNEQQAAELETCKEQLFQSNMERKELHNTVMDLRGNIRVFCRIRPPLESEENRMCCTWTYHDESTVELQSIDAQAKSKMGQQIFSFDQVFHPLSSQSDIFEMVSPLIQSALDGYNICIFAYGQTGSGKTYTMDGVPESVGVIPRTVDLLFDSIRGYRNLGWEYEIKATFLEIYNEVLYDLLSNEQKDMEIRMAKNNKNDIYVSNITEETVLDPNHLRHLMHTAKMNRATASTAGNERSSRSHAVTKLELIGRHAEKQEISVGSINLVDLAGSESPKTSTRMTETKNINRSLSELTNVILALLQKQDHIPYRNSKLTHLLMPSLGGNSKTLMFINVSPFQDCFQESVKSLRFAASVNSCKMTKAKRNRYLNNSVANSSTQSNNSGSFDK
With B1, in the assay with microtubules [1], the K (M,MT) of steady-state ATPase, 0.5 µM motor + 0-25 µM microtubules came out at 17 µM. In the assay with microtubules [2], this molecule came in with an MT binding with ADP (fraction bound) (fraction bound) of 0.2.

B2: NcdY485E dimeric motor protein (MGSM-H293-K700) (domain or fragment)
chain: MGSMHAALSTEVVHLRQRTEELLRCNEQQAAELETCKEQLFQSNMERKELHNTVMDLRGNIRVFCRIRPPLESEENRMCCTWTYHDESTVELQSIDAQAKSKMGQQIFSFDQVFHPLSSQSDIFEMVSPLIQSALDGYNICIFAYGQTGSGKTYTMDGVPESVGVIPRTVDLLFDSIRGYRNLGWEYEIKATFLEIENEVLYDLLSNEQKDMEIRMAKNNKNDIYVSNITEETVLDPNHLRHLMHTAKMNRATASTAGNERSSRSHAVTKLELIGRHAEKQEISVGSINLVDLAGSESPKTSTRMTETKNINRSLSELTNVILALLQKQDHIPYRNSKLTHLLMPSLGGNSKTLMFINVSPFQDCFQESVKSLRFAASVNSCKMTKAKRNRYLNNSVANSSTQSNNSGSFDK
Molecule B2 yielded an MT binding with ADP (fraction bound) (fraction bound) in the assay with microtubules [2] of 0.29.

B3: NcdY485K dimeric motor protein (MGSM-H293-K700) (domain or fragment)
chain: MGSMHAALSTEVVHLRQRTEELLRCNEQQAAELETCKEQLFQSNMERKELHNTVMDLRGNIRVFCRIRPPLESEENRMCCTWTYHDESTVELQSIDAQAKSKMGQQIFSFDQVFHPLSSQSDIFEMVSPLIQSALDGYNICIFAYGQTGSGKTYTMDGVPESVGVIPRTVDLLFDSIRGYRNLGWEYEIKATFLEIKNEVLYDLLSNEQKDMEIRMAKNNKNDIYVSNITEETVLDPNHLRHLMHTAKMNRATASTAGNERSSRSHAVTKLELIGRHAEKQEISVGSINLVDLAGSESPKTSTRMTETKNINRSLSELTNVILALLQKQDHIPYRNSKLTHLLMPSLGGNSKTLMFINVSPFQDCFQESVKSLRFAASVNSCKMTKAKRNRYLNNSVANSSTQSNNSGSFDK
For B3, the K (M,MT) of steady-state ATPase, 0.5 µM motor + 0-25 µM microtubules with microtubules [1] was 1.6 µM. Besides, the MT binding with ADP (fraction bound) (fraction bound) with microtubules [2] amounted to 0.6.

B4: NcdY485N dimeric motor protein (MGSM-H293-K700) (domain or fragment)
chain: MGSMHAALSTEVVHLRQRTEELLRCNEQQAAELETCKEQLFQSNMERKELHNTVMDLRGNIRVFCRIRPPLESEENRMCCTWTYHDESTVELQSIDAQAKSKMGQQIFSFDQVFHPLSSQSDIFEMVSPLIQSALDGYNICIFAYGQTGSGKTYTMDGVPESVGVIPRTVDLLFDSIRGYRNLGWEYEIKATFLEINNEVLYDLLSNEQKDMEIRMAKNNKNDIYVSNITEETVLDPNHLRHLMHTAKMNRATASTAGNERSSRSHAVTKLELIGRHAEKQEISVGSINLVDLAGSESPKTSTRMTETKNINRSLSELTNVILALLQKQDHIPYRNSKLTHLLMPSLGGNSKTLMFINVSPFQDCFQESVKSLRFAASVNSCKMTKAKRNRYLNNSVANSSTQSNNSGSFDK
In the case of B4, the MT binding with ADP (fraction bound) (fraction bound) with microtubules [2] stood at 0.37.

For the origin of these results see PMC3473065.
